Measurements reported in article PMC11909739.

Molecular target: KS3AT3 (homodimeric KS-AT didomain fragment of DEBS module 3)
Assay: cryo-EM structure

ACP3 (standalone acyl carrier protein of DEBS module 3), holo form (domain or fragment)
percent of KS3AT3 homodimer particles with one ACP (% of particles): 50.3 | percent of KS3AT3 homodimer particles with two ACPs (% of particles): 24.7 | percent of KS3AT3 homodimer particles with zero ACPs (% of particles): 25
